Source: US20070184522A1, “Cell death modulation via antagonists of Fasl and Fas activation” (University of Pittsburgh of the Commonwealth System of …, priority 2004, published 2007)
Blank lines part the entries; values can stand above or below the molecule they belong to.

Assays:
[1] = biological target: CFP-tagged and YFP-tagged Fas expressed in Hepa 1-6 cells; test: cell-based or functional assay
[2] = biological target: endogenous Fas of Jurkat cells (human) (UniProt P25445); test: cell-based or functional assay
[3] = biological target: T1, Fas trimerization in Jurkat cells (Homo sapiens, UniProt P25445); test: Chemical crosslinking (DTSSP) and Western blot of Fas trimerization in Jurkat cells; assay type: cell-based; settings: Fas-Ligand and DTSSP
T1 construct: endogenous in cells; host or cells: Jurkat
T1 sequence (P25445 26-335): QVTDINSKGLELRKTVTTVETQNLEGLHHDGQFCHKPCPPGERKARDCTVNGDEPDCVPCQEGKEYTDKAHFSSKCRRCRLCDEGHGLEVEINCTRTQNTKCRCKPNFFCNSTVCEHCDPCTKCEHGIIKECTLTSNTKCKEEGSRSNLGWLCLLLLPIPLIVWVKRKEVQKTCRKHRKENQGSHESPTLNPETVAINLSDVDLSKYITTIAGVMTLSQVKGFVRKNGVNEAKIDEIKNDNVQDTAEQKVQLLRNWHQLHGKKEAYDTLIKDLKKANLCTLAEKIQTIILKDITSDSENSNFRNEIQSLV
Experimental: FIG. 3a presents data collected from Jurkat cells (1×10^6) treated with 2 μg/ml of Fas Ligand with or without AlphaMet for 30 minutes on ice. Cells were washed with PBS twice and then incubated with 2 mM of DTSSP in PBS for 30 minutes. The crosslinking process was stopped by 20 mM of Tris (pH 7.5) for another 30 minutes. Cells were spun down and washed with PBS twice and lyzed in RIPA buffer. Cell lysates were subjected to SDS-PAGE under non-reducing or reducing conditions (FIG. 3b) and Western blot analysis using the mouse monoclonal antibody against human Fas. FIG. 3c depicts the quantification of the data in FIG. 3a by densitometry. The data are the mean and SE from three different independent crosslinking and Western blot experiments. […] Frame A: Acceptor CFP-Fas image; Frame B: Acceptor pre-bleach CFP-Fas image; Frame C: Acceptor post-bleach image. Frame D: Donor YFP-Fas image; Frame E: Donor pre-bleach image; Frame F: […]. The CFP-Fas strength in the selected region obtained a gain of 19.3% efficiency in the presence of FasL for 15 minutes. No FRET was observed without FasL. […] FIG. 3e depicts the results of experiments in which CFP-tagged Fas or CFP control vector were transiently expressed in Hepa 1-6 Cells (3×10^5). […] Cells were fixed and analyzed by fluorescence microscopy. […]

[4] = tested on: Jurkat cells; test: Fas-ligand induced apoptosis in Jurkat cells (Trypan Blue, flow cytometry); assay type: cell-based, human
Experimental: For FIG. 4a, Jurkat cells (1.5×10^5) were overnight treated in triplicate with 5 ng/ml of crosslinked human Fas ligand with or without 5 μg/ml of recombinant AlphaMet or 1 μg/ml of the indicated polypeptides. Percent apoptosis was determined by Trypan Blue staining using a hemocytometer. The data are representative and were repeated at least four times. […] The 17 kDa fragment of cleaved Caspase 3 is visualized by this antibody. The blot was reprobed for β-actin as a loading control. For FIG. 4c, serum deprived Hepa 1-6 cells (3×10^5) were overnight treated with 1 μg/ml of crosslinked mouse Fas ligand with or without AlphaMet or the indicated polypeptide. Media were collected and centrifuged to pellet the dead cells. […] The data in FIG. 4c represents three independent experiments.
Apoptosis assay. Pre-washed Jurkat cells in RPMI 1640 medium containing 1% FBS were inoculated in 96-wells at a density of 10^5 cells per well. Apoptosis was induced by cross-linked human Fas-ligand (R&D Systems) at a concentration of 0.5 ng/ml or Anti-Fas (human, activating) clone CH11 (Upstate biotechnology) at a concentration of 500 ng /ml. Hepa 1-6 cells were overnight starved before induction of apoptosis. The apoptosis in Hepa 1-6 was induced by anti-mouse Fas antibody Jo2 (200 ng/ml) or human recombinant Fas-ligand. The extent of cell viability and apoptosis was determined by several methods such as Trypan Blue stain, flow cytometry, LDH assay, and Hoechst staining.

[5] = tested on: Fas self-assembly in Hepa 1-6 cells; test: FRET assay of CFP-Fas/YFP-Fas in transfected Hepa 1-6 cells; assay type: cell-based; settings: Hepa 1-6, FasL for 15 minutes
Experimental: FIG. 3a presents data collected from Jurkat cells (1×10^6) treated with 2 μg/ml of Fas Ligand with or without AlphaMet for 30 minutes on ice. Cells were washed with PBS twice and then incubated with 2 mM of DTSSP in PBS for 30 minutes. The crosslinking process was stopped by 20 mM of Tris (pH 7.5) for another 30 minutes. Cells were spun down and washed with PBS twice and lyzed in RIPA buffer. Cell lysates were subjected to SDS-PAGE under non-reducing or reducing conditions (FIG. 3b) and Western blot analysis using the mouse monoclonal antibody against human Fas. FIG. 3c depicts the quantification of the data in FIG. 3a by densitometry. The data are the mean and SE from three different independent crosslinking and Western blot experiments. […] Frame A: Acceptor CFP-Fas image; Frame B: Acceptor pre-bleach CFP-Fas image; Frame C: Acceptor post-bleach image. Frame D: Donor YFP-Fas image; Frame E: Donor pre-bleach image; Frame F: Donor pre-bleach image. […] Cells were fixed and analyzed by fluorescence microscopy. […]
FRET assay. […] Fret efficiency (E) was calculated as FRETeff=(Dpost−Dpre)/Dpost (Dpost and Dpre are the mean emission intensity […] YFP bleaching).
Fluorescence protein tagged Fas molecules and Hepa 1-6 cells were used for these experiments. […] In these experiments the percent of Fas capping was also determined.

[6] = tested on: Fas capping in Hepa 1-6 cells; test: Fas capping of fluorescent protein tagged Fas in Hepa 1-6 cells; assay type: cell-based; settings: Hepa 1-6, 30 minutes treatment
Experimental: FIG. 3a presents data collected from Jurkat cells (1×10^6) treated with 2 μg/ml of Fas Ligand with or without AlphaMet for 30 minutes on ice. Cells were washed with PBS twice and then incubated with 2 mM of DTSSP in PBS for 30 minutes. The crosslinking process was stopped by 20 mM of Tris (pH 7.5) for another 30 minutes. Cells were spun down and washed with PBS twice and lyzed in RIPA buffer. Cell lysates were subjected to SDS-PAGE under non-reducing or reducing conditions (FIG. 3b) and Western blot analysis using the mouse monoclonal antibody against human Fas. FIG. 3c depicts the quantification of the data in FIG. 3a by densitometry. The data are the mean and SE from three different independent crosslinking and Western blot experiments. […] Frame A: Acceptor CFP-Fas image; Frame B: Acceptor pre-bleach CFP-Fas image; Frame C: Acceptor post-bleach image. Frame D: Donor YFP-Fas image; Frame E: Donor pre-bleach image; Frame F: […]. The CFP-Fas strength in the selected region obtained a gain of 19.3% efficiency in the presence of FasL for 15 minutes. No FRET was observed without FasL. […] FIG. 3e depicts the results of experiments in which CFP-tagged Fas or CFP control vector were transiently expressed in Hepa 1-6 Cells (3×10^5). Cells were treated with 1 μg/ml of Fas ligand or 100 ng/ml of Jo2 with or without 5 μg/ml of AlphaMet or 1 μg/ml of YLGA 12 mer for 30 minutes on ice. Cells were fixed and analyzed by fluorescence microscopy. Frame A: AlphaMet treatment only, no FasL; Frame B: Fas ligand treatment only; Frame C: Fas ligand and AlphaMet treatment; Frame D: Fas ligand and 12 mer YLGA; Frame E: Jo2 treatment only and Frame F: Jo2 and AlphaMet treatment.
Fluorescence protein tagged Fas molecules and Hepa 1-6 cells were used for these experiments. These cells were transiently co-transfected with CFP and YFP chimeric Fas expression vectors using the lipofectamine 2000 method (Invitrogen). After 24 hours of transfection, about 50% of the cells were fluorescing. The cells were treated by Fas-ligand in the presence or absence of AlphaMet for 30 minutes. Treated cells were then fixed with cold methanol and subjected to FRET analysis. Cells were considered positive if FRET efficiency was over 10%. FRET phenomenon was observed only in cells that were treated with Fas-ligand. […] In these experiments the percent of Fas capping was also determined.

FRET efficiency between CFP-Fas and YFP-Fas [1]: 19.3%
percent of fluorescent cells showing Fas capping [1]: 20%
Fas trimerization (DTSSP crosslinking, Western blot, densitometry) [2]: 3 fold
Molecule: soluble Fas Ligand (recombinant FasL)

intensity of trimeric Fas complex versus ligand unstimulated crosslinked cells [3]: about 3 fold
B1: FasL: recombinant soluble Fas Ligand, cognate ligand of Fas, used to induce apoptosis (protein)
chain: QLFHLQKELAELRESTSQMHTASSLEKQIGHPSPPPEKKELRKVAHLTGKSNSRSMPLEWEDTYGIVLLSGVKYKKGGLVINETGLYFVYSKVYFRGQSCNNLPLSHKVYMRNSKYPQDLVMMEGKMMSYCTTGQMWARSSYLGAVFNLTSADHLYVNVSELSLVNFEESQTFFGLYKL
death rate ([4]; Fas-ligand overnight, AlphaMet 5 μg/ml, Trypan Blue): about 50%
sub-G1 (apoptotic) population ([4]; Propidium Iodide flow cytometry, Fas-ligand): 48%
FRET efficiency gain [5]: 19.3%
fluorescent cells showing Fas capping [6]: 20%
